# In publication PMC11376072, “Moderately thermostable GH1 β-glucosidases from hyperacidophilic archaeon Cuniculiplasma divulgatum S5” (FEMS Microbiology Ecology, 2024):
# B1: CIB13, GH1 β-glucosidase from Cuniculiplasma divulgatum S5 (enzyme)
# chain: MLPKGFRFGFSLAGFQSEMGLSGKDENSDWYQWCHDEYNIKNGVVSGDFPENGAAYWDLFRKDHETAVNIGMNSTRIGIEWSRIFPTSTEGVKVRIDRDGDNITGITIEKSDLESLKKICNMDAVKKYREIFMDLKDRNFYMILNLFHWSMPLWINDPRKREISKGNNLGNFFSEKSVIEFAKFAAFAAYSFDDLVDVYSTMNEPNVVFSGGNNNSEKKYYSKMKFFIEAHARAYDCIRTISRKRIGVIYANEHIESLENSDPELVEEVTWRNRYSFIDSIKSGKTFSTKNMEENSRWPEKNVFRKDLENRLDWIGVNYYSRYVVRRIESGFEAIDGYGFLCSGYEKSKDGRVVSEMGWEIYPQGLYDVLMGYQERYSLPMMVTENGIADDMDRYRPGFLISHMKMIERAIKDGAGVEGYLHWSLTDNFEWSSGFSKKFGLLRVDYRTKKRSIRPSALVFREISKKSGVPEELEWLGERFY
# notes: CIB13, GH1 β-glucosidase of Cuniculiplasma divulgatum S5 (JCM 30642), GenBank SIM79973.1, CSP5_1651; predicted monomeric mass 56.1 kDa; Cloned into p15TvL with an N-terminal 6His-tag; also called CSP5_1651; source: E. coli BL21(DE3) Lobstr, purified (Ni-NTA)
# B2: CIB12, GH1 β-glucosidase from Cuniculiplasma divulgatum S5 (enzyme)
# chain: MFPKNFKFGFSEAGFQFEMGVSDIDTNTDWYKWSHDSENIKNHIVSGDRPEEGVGYWDLYPKDHDLAEYIGMNAARIGIEWSRIFPVSTERVTVEVIEENGDILEIKITEKTIKELDLLSDKNAMQHYTNIFNDIKKRGWFLVINLFHWSLPLWINDPSNRNSEKDNALGNCMNRSSVIEFVKYAAYISYYFGSIADRFATMNEPNEVFKTCSEDKRVESYHIRMKWFVEAHARSYDAMKQFTNRQIGVIYANGDVQSFENKDPKLKEEVEYEQRYSFFDALIHGDVHWYVGACRKTNHVHGKSIRPDLSNRIDWIGVNYYSRNVVKRKEDGYENVRGLGYDTGWVSYEKSLDGRSVSETGWEIYPEGIYNIVMSYHKRYELPMMITENGMADDNDRFRPRYLVSHLKNLERAINDGAKVDGYLHWALTDNFEWGSGFSKKFGLIKVDYKTKKRYLRPSALIMKEITKHNGIPEELEWLGEDKF
# notes: CIB12, GH1 β-glucosidase of Cuniculiplasma divulgatum S5 (JCM 30642), GenBank SIM59545.1, locus tag CSP5_0942; predicted monomeric mass 56.8 kDa; Cloned into p15TvL with an N-terminal 6His-tag; also called CSP5_0942; source: E. coli BL21(DE3) Lobstr, purified (Ni-NTA)
# What was measured:
# [1] = target: the molecule itself; test: SEC; size-exclusion chromatography of the purified protein; conditions not given
# purified protein = substrate: O=[N+]([O-])c1ccc(O[C@@H]2O[C@H](CO)[C@@H](O)[C@H](O)[C@H]2O)cc1; test: purified protein; details: 50 mM MES pH 5.0, 30°C, 30 min, 0-10 mM substrate
Protein,stoichiometry N [1],Km (purified protein),Vmax (purified protein),kcat (purified protein)
B1,2,900 ± 100 µM,0.93 µmol/min/mg,0.87 s⁻¹
B2,2,500 ± 100 µM,0.61 µmol/min/mg,0.57 s⁻¹
